Laboratory results from PMC7577978, “IM30 IDPs form a membrane-protective carpet upon super-complex disassembly” (Communications Biology, 2020).
Where a chain is given by its changes, count along the chain named. Names may count otherwise.

Assays:
[1] = molecular target: the molecule itself; assay: SEC-MALS; Superdex 200 Increase 10/300 GL, 25 mM HEPES pH 7.5, 125 mM NaCl, 5% glycerol (w/w), RT
[2] = molecular target: T1, IM30-Venus, Venus-labeled Synechocystis IM30 (Synechocystis sp. PCC 6803, UniProt Q55707 1-267); assay: FRET or BRET; 0.2 µM purified CFP/Venus labeled IM30 rings (copurified from mixed cell pellets, 27% CFP and 63% Venus w/w), excitation 420 nm, RT, with 0-1000 µM DOPG liposomes; conditions: both partners purified
T1 construct: IM30 (VIPP1) of Synechocystis sp; PCC 6803; Venus fragment ligated into pRSET SynIM30 plasmid; purified as the His-tagged WT, so a His tag is likely present; also called Venus-labeled IM30 monomers; source: E. coli, copurified with IM30-CFP after mixing cell pellets prior to cell lysis
T1 sequence (looked up): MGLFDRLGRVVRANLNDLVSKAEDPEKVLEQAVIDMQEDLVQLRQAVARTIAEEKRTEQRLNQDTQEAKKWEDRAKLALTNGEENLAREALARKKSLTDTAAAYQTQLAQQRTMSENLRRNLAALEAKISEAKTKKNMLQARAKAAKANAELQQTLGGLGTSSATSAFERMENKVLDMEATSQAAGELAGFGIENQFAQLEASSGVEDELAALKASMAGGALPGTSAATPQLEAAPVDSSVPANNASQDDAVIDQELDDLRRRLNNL

[3] = molecular target: the molecule itself; assay: atomic force microscopy; ~0.5 µM IM30 WT adsorbed on mica, 10 mM Tris or HEPES, 150 mM KCl, 25 mM MgCl2, pH 7.6; imaged in buffer at ~30 °C
[4] = molecular target: the molecule itself; assay: SEC; Superose12 10/300 GL, 20 mM HEPES pH 7.6 with 0, 50, 100, 150 or 300 mM NaCl, 8 °C; IM30* at suitable NaCl concentrations
[5] = molecular target: the molecule itself; assay: cross-linking; disulfide between Cys227 of two protomers; SDS-PAGE of the purified A227C mutants in absence of reducing agents

B1: IM30_H3b-7 (amino acids 147-267), WT fragment of Synechocystis IM30 (domain or fragment, Synechocystis sp. PCC 6803, UniProt Q55707 147-267, looked up)
chain: KANAELQQTLGGLGTSSATSAFERMENKVLDMEATSQAAGELAGFGIENQFAQLEASSGVEDELAALKASMAGGALPGTSAATPQLEAAPVDSSVPANNASQDDAVIDQELDDLRRRLNNL
notes: IM30 (VIPP1) of Synechocystis sp; PCC 6803, amino acids 147-267 (helices 3b-7); also called helices 3b-7; intrinsically disordered C-terminus
stoichiometry N [1]: 2

B2: IM30-CFP, CFP-labeled Synechocystis IM30 (natural protein, Synechocystis sp. PCC 6803, UniProt Q55707 1-267, looked up)
chain: T1 sequence (looked up)
notes: IM30 (VIPP1) of Synechocystis sp; PCC 6803; CFP fragment ligated into pRSET SynIM30 plasmid; purified as the His-tagged WT, so a His tag is likely present; also called CFP labeled IM30 monomers; source: E. coli, copurified with IM30-Venus after mixing cell pellets prior to cell lysis
binding result [2]: binds

B3: inner membrane-associated protein of 30 kDa (IM30) wild type, N-terminally His-tagged, from Synechocystis sp. PCC 6803 (natural protein, UniProt Q55707 1-267, looked up)
chain: T1 sequence (looked up)
notes: IM30 (VIPP1) of Synechocystis sp; PCC 6803, full-length wild type; also called IM30 WT; VIPP1
binding result [3]: binds

B4: IM30* (E83A, E84A, F168A, E169A, R170A, M171A), oligomerization-impaired mutant of Synechocystis IM30 (natural protein, Synechocystis sp. PCC 6803, UniProt Q55707 1-267, looked up)
chain: T1 sequence (looked up) with E83A, E84A, F168A, E169A, R170A, M171A
notes: IM30 (VIPP1) of Synechocystis sp; PCC 6803, full length, with six alanine substitutions made by site-directed mutagenesis; For SEC-SAXS the protein was heated to 50 °C, cooled slowly and buffer-exchanged by SEC before the run; also called IM30* dimers
stoichiometry N [4]: 2

B5: IM30*_A227C (E83A, E84A, F168A, E169A, R170A, M171A, A227C) (natural protein, Synechocystis sp. PCC 6803, UniProt Q55707 1-267, looked up)
chain: T1 sequence (looked up) with E83A, E84A, F168A, E169A, R170A, M171A, A227C
notes: IM30 (VIPP1) of Synechocystis sp; PCC 6803, full length, the six alanine substitutions of IM30* and A227C in the linker between helix 6 and 7; also called A227C mutant of IM30*
binding result [5]: binds

B6: IM30_A227C, A227C mutant of Synechocystis IM30 WT (natural protein, Synechocystis sp. PCC 6803, UniProt Q55707 1-267, looked up)
chain: T1 sequence (looked up) with A227C
notes: IM30 (VIPP1) of Synechocystis sp; PCC 6803, full length, with A227C; the methods print '(A272C)' in brackets after the name IM30_A227C, the results and the legend say A227C; also called A227C mutant of IM30 WT
binding result [5]: binds
